This is an account of results in publication PMC12584684, “A minimal SufB2C2 complex functions as a [4Fe-4S] cluster scaffold in methanogenic archaea” (Microbiology Spectrum, 2025).

The subject of assay [1] is T1, MTH SufB2C2.
T1 construct: gene sufC; N-terminal His6-SufC co-expressed with untagged SufB in E. coli Rosetta 2(DE3); SufB2C2 heterotetramer, ~156 kDa by SEC; with Fe-S cluster assembly protein SufB
The experiment in a line: malachite green Pi release ATPase assay. The settings on record: 60°C, pH 7.5, 5 mM MgCl2, 0-2 mM ATP, holo-form, anoxic. In kind it is biochemical, Methanothermococcus thermolithotrophicus. The text has this: malachite green Pi release ATPase assay on MTH SufB2C2 | kinetic parameters (Vmax, Km, kcat, and catalytic efficiency) for holo-forms of MTH SufC and SufB2C2

Assay [2] concerns T2, MTH SufC.
T2 construct: pET15b N-terminal His6-tag, E. coli Rosetta 2(DE3), anoxic Ni-NTA; monomer 30 kDa, dimer by SEC
The experiment in a line: malachite green Pi release ATPase assay. The class given is biochemical, Methanothermococcus thermolithotrophicus. Conditions: 60°C, pH 7.5, 5 mM MgCl2, 0-2 mM ATP, holo-form, anoxic. From the text: malachite green Pi release ATPase assay on MTH SufC | kinetic parameters (Vmax, Km, kcat, and catalytic efficiency) for holo-forms of MTH SufC and SufB2C2

The target of assay [3] is T3, MMP SufB2C2 (Methanococcus maripaludis, UniProt Q6LY25).
T3 construct: gene MMP1168; sufCB operon, N-terminal Strep-tag on SufC, expressed in M. maripaludis S0001 and purified anoxically; SufB2C2 heterotetramer; with Fe-S cluster assembly protein SufB
T3 sequence (Q6LY25 1-248): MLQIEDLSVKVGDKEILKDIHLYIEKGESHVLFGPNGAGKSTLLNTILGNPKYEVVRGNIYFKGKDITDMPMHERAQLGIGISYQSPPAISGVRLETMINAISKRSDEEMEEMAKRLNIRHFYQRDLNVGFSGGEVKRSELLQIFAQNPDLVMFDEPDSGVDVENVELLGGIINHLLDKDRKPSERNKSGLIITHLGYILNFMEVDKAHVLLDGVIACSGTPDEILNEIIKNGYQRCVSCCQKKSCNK
T3 sequence (Q6LY24 1-418 partner): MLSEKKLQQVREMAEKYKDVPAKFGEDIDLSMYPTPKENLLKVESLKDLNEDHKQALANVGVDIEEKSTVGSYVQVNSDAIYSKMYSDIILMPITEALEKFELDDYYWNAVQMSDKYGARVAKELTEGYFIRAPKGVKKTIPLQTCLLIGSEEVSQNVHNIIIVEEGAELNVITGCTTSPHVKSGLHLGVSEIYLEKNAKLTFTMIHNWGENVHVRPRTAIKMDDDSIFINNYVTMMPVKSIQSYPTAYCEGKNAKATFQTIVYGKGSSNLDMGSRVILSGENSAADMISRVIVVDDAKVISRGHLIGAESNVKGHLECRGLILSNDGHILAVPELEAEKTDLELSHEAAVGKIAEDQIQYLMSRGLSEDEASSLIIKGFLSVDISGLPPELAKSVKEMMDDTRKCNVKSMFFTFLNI
In words: iron quantification, UV-visible and EPR spectroscopy, as purified. Conditions: anoxic purification from native host; EPR at 10 K after 5 mM dithionite. The class given is binding.

Assay [4] addresses His6-tagged Methanothermococcus thermolithotrophicus SufB (Methanothermococcus thermolithotrophicus). The experiment in a line: SEC; Superdex 200 10/300 GL, 50 mM sodium HEPES, 200 mM NaCl, 5 mM MgCl2, pH 7.5; samples pretreated with 10 mM EDTA and 10 mM DTH overnight; calibrated with standards of 29-700 kDa; fractions on SDS-PAGE.
The target in assay [5] is His6-tagged Methanothermococcus thermolithotrophicus SufC (Methanothermococcus thermolithotrophicus). The description is as above.
Assay [6] has the same target.
The target is the same in assay [7]. The source holds these as a separate data set.

Take `Nc1ncnc2c1ncn2[C@@H]1O[C@H](COP(=O)(O)OP(=O)(O)OP(=O)(O)O)[C@@H](O)[C@H]1O` [ATP]: the Km is 2600 ± 700 µM in assay [1] and 1900 ± 800 µM in assay [2].

For `[S]12[Fe]3[S]4[Fe]1[S]1[Fe]2[S]3[Fe]41` [[4Fe-4S] cluster], in assay [3], the “Fe atoms per protomer” value stood at 1.6 ± 0.3 Fe per protomer. “His6-tagged Methanothermococcus thermolithotrophicus SufB (natural protein)”: the stoichiometry N in assay [4] is 2. As to “His6-tagged Methanothermococcus thermolithotrophicus SufC (natural protein)”, the stoichiometry N in assay [5] was found to be 2. In the case of “untagged Methanothermococcus thermolithotrophicus SufB (natural protein)”, the ATPase activity (malachite green) of the MTH SufB2C2 complex against MTH SufC alone at 60°C in assay [6] was determined as 7 fold. Also, the activation of apo-AcnB (Fe-S cluster transfer, aconitase activity) by the MTH SufB2C2 complex against MTH SufC alone in assay [7] was 2 fold.
